Experimental data reported in patent US20170355757A1 (Regeneron, published 2017).

T1: monkey C5-mmh (monkey, UniProt P01031 19-1676 (human entry), limits assumed)
T1 construct: recombinant, with C-terminal myc-myc-hexahistidine tag
T1 chain: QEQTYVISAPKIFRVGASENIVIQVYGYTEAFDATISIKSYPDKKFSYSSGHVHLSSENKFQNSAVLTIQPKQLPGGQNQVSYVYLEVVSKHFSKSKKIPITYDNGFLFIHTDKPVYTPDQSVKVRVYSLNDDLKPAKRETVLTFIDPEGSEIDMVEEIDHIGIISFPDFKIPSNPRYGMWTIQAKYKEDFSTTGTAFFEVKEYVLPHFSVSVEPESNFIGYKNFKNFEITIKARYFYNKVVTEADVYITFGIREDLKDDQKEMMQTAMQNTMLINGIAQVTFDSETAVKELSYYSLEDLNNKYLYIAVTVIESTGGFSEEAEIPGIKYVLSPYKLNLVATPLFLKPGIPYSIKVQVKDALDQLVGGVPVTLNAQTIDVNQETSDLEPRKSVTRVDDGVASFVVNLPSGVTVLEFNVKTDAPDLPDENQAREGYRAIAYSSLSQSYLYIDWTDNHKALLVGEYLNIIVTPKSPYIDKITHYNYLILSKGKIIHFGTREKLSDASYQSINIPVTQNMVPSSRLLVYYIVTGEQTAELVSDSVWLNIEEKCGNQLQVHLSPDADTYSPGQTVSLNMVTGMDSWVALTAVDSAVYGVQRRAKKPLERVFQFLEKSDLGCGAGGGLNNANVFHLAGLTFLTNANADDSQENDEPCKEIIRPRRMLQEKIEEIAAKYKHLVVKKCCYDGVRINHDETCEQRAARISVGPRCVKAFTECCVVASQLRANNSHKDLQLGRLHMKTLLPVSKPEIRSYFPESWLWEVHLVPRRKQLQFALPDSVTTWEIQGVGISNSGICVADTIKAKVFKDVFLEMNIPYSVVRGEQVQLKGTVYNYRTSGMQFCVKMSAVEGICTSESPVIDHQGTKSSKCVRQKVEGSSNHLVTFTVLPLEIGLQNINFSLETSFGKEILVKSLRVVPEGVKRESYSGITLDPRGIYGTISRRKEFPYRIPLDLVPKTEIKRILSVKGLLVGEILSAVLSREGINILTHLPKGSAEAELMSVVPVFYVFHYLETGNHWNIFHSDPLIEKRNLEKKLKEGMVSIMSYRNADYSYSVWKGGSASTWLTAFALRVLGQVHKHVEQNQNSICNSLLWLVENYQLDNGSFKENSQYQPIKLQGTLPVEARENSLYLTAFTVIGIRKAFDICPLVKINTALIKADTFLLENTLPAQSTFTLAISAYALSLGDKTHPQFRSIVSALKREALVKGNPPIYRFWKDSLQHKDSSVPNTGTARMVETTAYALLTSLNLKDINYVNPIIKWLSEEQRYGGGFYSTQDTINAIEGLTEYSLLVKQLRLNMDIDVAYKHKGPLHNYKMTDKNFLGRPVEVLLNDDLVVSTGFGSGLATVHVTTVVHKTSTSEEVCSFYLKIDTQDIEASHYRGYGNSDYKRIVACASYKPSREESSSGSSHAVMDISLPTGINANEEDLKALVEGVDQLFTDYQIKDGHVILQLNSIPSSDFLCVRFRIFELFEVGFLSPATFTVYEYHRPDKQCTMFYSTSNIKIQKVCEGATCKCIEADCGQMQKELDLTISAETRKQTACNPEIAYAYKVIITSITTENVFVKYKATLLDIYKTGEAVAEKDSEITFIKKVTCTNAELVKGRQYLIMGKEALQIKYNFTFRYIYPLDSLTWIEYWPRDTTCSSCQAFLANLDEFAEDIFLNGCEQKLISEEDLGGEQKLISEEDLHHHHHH


Key:
human C5 [1] = target: T2, human C5 (human, UniProt P01031 19-1676); test: cell-based or functional assay
African green monkey C5 [2] = target: T3, African green monkey C5 (African green monkey); test: cell-based or functional assay
human C5 R885H-mmh = human C5 R885H-mmh (human, UniProt P01031 19-1676); test: cell-based or functional assay
human C5 R885C-mmh = human C5 R885C-mmh (human, UniProt P01031 19-1676); test: cell-based or functional assay
monkey C5-mmh [3] = target: T1, monkey C5-mmh; test: SPR (Biacore), mAb captured, dissociation of monkey C5 at pH7.4 vs pH6.0, 25°C
human C5 [4] = target: T2, human C5; test: cell-based or functional assay; remark: listed apart in the source
Cynomolgus monkey C5 = Cynomolgus monkey C5 (cynomolgus monkey, UniProt A0A2K5U1T1 19-1676); test: cell-based or functional assay
monkey C5-mmh [5] = target: T1, monkey C5-mmh; test: SPR (Biacore), mAb captured, dissociation of monkey C5 at pH7.4 vs pH6.0, 37°C
African green monkey C5 [6] = target: T3, African green monkey C5; test: cell-based or functional assay; remark: listed apart in the source
human C5 [7] = target: T2, human C5; test: SPR (Biacore), mAb captured, dissociation of human C5 at pH7.4 vs pH6.0, 37°C
Protocol: Effect of pH on the rate of dissociation of recombinant human C5 bound to purified anti-C5 monoclonal antibodies was determined using a real-time surface plasmon resonance biosensor using a Biacore T200 instrument. The Biacore sensor surface was first derivatized by amine coupling with a monoclonal mouse anti-human Fc antibody (GE, # BR-1008-39) to capture anti-C5 monoclonal antibodies expressed with human IgG4 Fc. All Biacore binding studies were performed using two running buffers PBS-T, pH7.4 (0.01M Na₂HPO₄/NaH₂PO₄, 0.15M NaCl, 0.05% v/v Tween-20, adjusted to pH7.4) and PBS-T, pH6.0 (0.01M Na₂HPO₄/NaH₂PO₄, 0.15M NaCl, 0.05% v/v Tween-20, adjusted to pH6.0). […] Binding dissociative half-lives (t %) were calculated from kd as: […]

Row | Binder | IC50, inhibition of CDC of Daudi cells, 1.66% human serum (human C5 [1]) [nM] | IC50, inhibition of CDC of Daudi cells, 1.66% African Green monkey serum (African green monkey C5 [2]) [nM] | IC50, inhibition of CDC of Daudi cells, C5 depleted human serum and 6.6 nM C5 Variant R885H (human C5 R885H-mmh) [nM] | IC50, inhibition of CDC of Daudi cells, C5 depleted human serum and 6.6 nM C5 Variant R885C (human C5 R885C-mmh) [nM] | t½ Ratio pH7.4/pH6.0 (monkey C5-mmh [3]) | Human AP % Max Inhibition, hemolysis assay, NHS (human C5 [4]) [%] | Human AP IC50, hemolysis assay, NHS (human C5 [4]) [nM] | Human CP % Max Inhibition, hemolysis assay, NHS (human C5 [4]) [%] | Human CP IC50, hemolysis assay, NHS (human C5 [4]) [nM] | Cyno AP % Max Inhibition, hemolysis assay, 5% serum (Cynomolgus monkey C5) [%] | Cyno CP % Max Inhibition, hemolysis assay, 5% serum (Cynomolgus monkey C5) [%] | Cyno Serum AP IC50, hemolysis assay, 5% serum (Cynomolgus monkey C5) [nM] | Cyno Serum CP IC50, hemolysis assay, 5% serum (Cynomolgus monkey C5) [nM] | t½ Ratio pH7.4/pH6.0 (monkey C5-mmh [5]) | AGM AP % Max Inhibition, hemolysis assay, 5% serum (African green monkey C5 [6]) [%] | AGM CP % Max Inhibition, hemolysis assay, 5% serum (African green monkey C5 [6]) [%] | AGM Serum AP IC50, hemolysis assay, 5% serum (African green monkey C5 [6]) [nM] | AGM Serum CP IC50, hemolysis assay, 5% serum (African green monkey C5 [6]) [nM] | t½ Ratio pH7.4/pH6.0 (human C5 [7])
1 | H4H12169P (antibody, human IgG4, V domains shown, H4H: human IgG4 Fc with S108P hinge mutation) VH: EVQLVESGGGLAQPGGSLRLSCAASGFTFRSYAMSWVRQAPGKGPEWVSGIGGNGVTTYYADSVKGRFTISRDNSKNTLFLQMNSLRAEDTAVYYCVQGGLGGYFTGYWGQGTLVTVSS VL: DIQMTQSPSSLSASVGDRVTITCRASQSISTYLNWYQQNPGKAPKLLIFDASSLQSGVPSRFSGSGSGTDFTLTIRGLQPEDFATYYCQQSYSAPLTFGGGTKVEIK | 1.7 | 2.9 | 1.3 | 0.67 | 3.4 | 44.5 | 20 | 98.3 | 2.36 | 96.3 | 92.8 | 7.95 | 19.9 | 2 | 45.7 | 43.3 | 91.5 | 34.4 | 
2 | H4H12176P2 (antibody, human IgG4, V domains shown, H4H: human IgG4 Fc with S108P hinge mutation) VH: EVQLVESGGGLVQPGGSLRLSCAASGFHSNRYWMDWVRQAPGKGLEWVANIKQDGSEENYVDSVKGRFTISRDNAKNSLYLQMNSLRAEDTAVYYCARDRSTSWVPYWFFDLWGRGTLVTVSS VL: not shown | 2.7 | 3.5 | 2.1 | 1.3 | ≤ 9.1 | 69.9 | 16.5 | 94.1 | 4.58 | 99.3 | 97.5 | 7.7 | 14.7 | 2.8 | 83.2 | 91 | 47.7 | 30.4 | ≤ 0.4
3 | H4H12183P2 (antibody, human IgG4, V domains shown, H4H: human IgG4 Fc with S108P hinge mutation) VH: QVQLQESGPALVKPSQTLSLTCTVSGGSIIRGSTYWSWVRQFPGKGLEWIGYSYYSGTAYYNPSLESRATISVDTSKNQFSLNLKSVTAADTAVYYCTREIGVAGLFDIWGQGTLVTVSS VL: not shown | 1.7 | 14 | 1.2 | 0.45 | 5.8 | 78.9 | 160 | 99.9 | 5.88 | 100 | 64.6 | 29.6 | 142 | 2.4 |  |  |  |  | 
4 | H4H12161P (antibody, human IgG4, V domains shown, H4H: human IgG4 Fc with S108P hinge mutation) VH: EVQLVESGGDLVQPGGSLRLSCAASGFTFSDHYMDWVRQAPGKGLDWIGRIRNKANAYNTEYAASVRGRFTISRDDSQNLLYLQMNSLKTDDTAVYYCVRVWNYAYFAMDVWGQGTTVTVSS VL: DIQMTQSPSSLSASVGDRVTITCRSSQNIGIFLNWYQQKPGEAPNLLISAASSLHSGVPSRFSGSGSGTDFTLTIGSLQPEDFATYYCQQTYNTIFTFGPGTKVDIK | 2.4 | 2.6 | 1.8 | 1 |  | 56.1 | 25.5 | 93.7 | 2.56 | 98.4 | 100 | 7.8 | 27.9 | 10.7 | 35.7 | 78.9 | 47.5 | 31.9 | ≤ 0.7
